Assay results taken from patent US20130034559A1 (AstraZeneca / MedImmune, published 2013).
Numbering of substitutions follows the chain as printed.

Legend:
[1] = biological target: T1, human B7-H1 expressed on cells (human, UniProt Q9NZQ7 19-290); assay: cell ELISA: biotinylated PD-1/Fc (1.25 ug/ml) on CHO-huB7-H1 cells after hybridoma supernatant (1:5); 0% = 100% inhibition
T1 construct: whole, on cells; also called PD-L1; huB7-H1
Description: 25000 cells/well were plated in 50 μl of media into wells of a 384-well tissue culture plate (Corning Costar, catalog #3712). Next day, 50 μl/well of diluted (1:5) hybridoma supernatant was added and plates were incubated at 4 C for 1 hour on a shaker. […] Cells were washed and fixed in 100 ul of PBS containing 3.7% formaldehyde and 3% bovine serum albumin for 20 min at room temperature. Cells were washed and incubated in 100 ul of PBS containing 0.6% H2O2 and 3% bovine serum albumin for 10 min at room temperature. Cells were washed and incubated in 50 μl of horseradish peroxidase-conjugated streptavidin diluted at 1:4000 for 30 min at 4° C. Cells were washed before signal detection.

[2] = biological target: T2, human B7-DC on 293T cells (human, UniProt Q9BQ51 20-273); assay: FACS on 293T cells transfected with human B7-DC
T2 construct: whole, on cells; also called PD-L2
T2 sequence (looked up): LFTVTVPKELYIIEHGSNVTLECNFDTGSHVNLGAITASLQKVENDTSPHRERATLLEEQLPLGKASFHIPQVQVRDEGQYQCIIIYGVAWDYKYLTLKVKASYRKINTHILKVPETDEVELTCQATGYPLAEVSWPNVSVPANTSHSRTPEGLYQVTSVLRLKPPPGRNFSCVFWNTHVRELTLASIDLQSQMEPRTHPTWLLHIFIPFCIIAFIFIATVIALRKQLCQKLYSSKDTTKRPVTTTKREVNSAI
Description: (§1) The ability of the purified antibodies to bind to human B7-H1, B7-DC, mouse B7H1 and cynomolgus monkey B7-H1 was determined by FACS analysis. […] Mouse J558 cells expressing mouse B7-H1 were obtained from ATCC (catalog #TIB-6). Cells were resuspended in PBS containing 2% FBS (FACS buffer) and seeded at 50000 cells/well into V-bottomed plates. Anti-B7-H1 and isotype control antibodies diluted in FACS buffer were added at a final concentration of 5 μg/ml and plates were incubated for 1 h at 4° C. […] Mouse anti-human B7-DC (PD-L2) antibody (R&D systems cat #MAB1224, detected with goat anti-mouse Fc Cy5, Jackson Immunoresearch) was used as a positive control for B7-DC expression. PE-conjugated rat anti-mouse B7-H1 antibody (eBioscience, clone M1H5, detected with goat anti-rat Fc Cy5, Jackson Immunoresearch) was used as a positive control for mouse B7-H1 expression.

[3] = biological target: T3, cynomolgus monkey B7-H1 expressed on cells (cynomolgus monkey, UniProt G7PSE7 19-290); assay: FACS, 1 µg/ml antibody, anti-CD3-activated cynomolgus monkey T cells
T3 construct: whole, on cells; also called cyno B7-H1; cynomologus B7-H1
T3 sequence (G7PSE7 entry or part of it): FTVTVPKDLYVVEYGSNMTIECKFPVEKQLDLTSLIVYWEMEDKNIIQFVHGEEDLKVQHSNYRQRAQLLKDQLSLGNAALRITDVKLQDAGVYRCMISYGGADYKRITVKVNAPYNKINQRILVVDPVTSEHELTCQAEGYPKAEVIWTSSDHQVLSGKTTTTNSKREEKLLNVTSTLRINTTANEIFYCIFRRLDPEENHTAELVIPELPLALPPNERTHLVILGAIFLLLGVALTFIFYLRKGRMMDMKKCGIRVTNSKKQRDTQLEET
Description: For activation of cynomolgus monkey T cells 96-well high binding plates were incubated with 100 μl/well of goat anti-mouse IgG Fc antibody diluted at 1 ug/ml in PBS at 4 C overnight. […] Cynomolgus monkey PBMC were isolated from peripheral blood (Bioreclamation, catalog #CYNWBCPT). Anti-CD3 mAb coated plates were washed with PBS and isolated PBMC were added in 200 ul of ICM media at ˜200000 cells/well and cultured for 72 hours. Cells were then harvested, washed in FACS buffer and mixed with diluted purified anti-B7-H1 antibodies or irrelevant human IgG2 or IgG4 antibodies at a final concentration of 1 ug/ml in 96-well V-bottom assay plate (50 ul/well). […] Cells were incubated for 1 hour at 4° C. before being washed again with FACS buffer and being read on a FACSCalibur instrument. Monkey T lymphocyte population was selected for analysis based on forward and side scatter as well as positive staining for CD3 marker and negative staining for 7-AAD.

[4] = biological target: T2, human B7-DC on 293T cells; assay: FACS, 5 µg/ml antibody, 293T cells transfected with human B7-DC
Description: as §1

[5] = biological target: T1, human B7-H1 expressed on cells; assay: FACS, 1 µg/ml antibody, anti-CD3-activated human T cells
Description: 96-well high binding plates were incubated with 100 μl/well of anti-CD3 antibody diluted at 1 ug/ml in PBS (OKT3 clone, eBioscience, catalog #160037) at 4 C overnight. Human T cells were isolated from frozen leukopack using T cell enrichment kit (StemCell Technologies, catalog #19051). Anti-CD3 mAb coated plates were washed with PBS and purified T cells were added in 200 ul of ICM media at 360000 cells/well and cultured for 72 hours. T cells were then harvested, washed in FACS buffer and mixed with diluted purified anti-B7-H1 antibodies or irrelevant human IgG2 or IgG4 antibodies at final concentration of 1 ug/ml in 96-well V-bottom assay plate (50 ul/well). […] Cells were incubated for 30 min at 4° C. before being washed again with FACS buffer and being read on a FACSCalibur instrument. Live lymphocyte population was selected for analysis based on forward and side scatter as well as negative staining for 7-AAD.

[6] = biological target: T4, mouse B7-H1 on J558 cells (mouse, UniProt Q9EP73 19-290); assay: FACS on J558 cells expressing mouse B7-H1
T4 construct: whole, on cells
T4 sequence (Q9EP73 19-290): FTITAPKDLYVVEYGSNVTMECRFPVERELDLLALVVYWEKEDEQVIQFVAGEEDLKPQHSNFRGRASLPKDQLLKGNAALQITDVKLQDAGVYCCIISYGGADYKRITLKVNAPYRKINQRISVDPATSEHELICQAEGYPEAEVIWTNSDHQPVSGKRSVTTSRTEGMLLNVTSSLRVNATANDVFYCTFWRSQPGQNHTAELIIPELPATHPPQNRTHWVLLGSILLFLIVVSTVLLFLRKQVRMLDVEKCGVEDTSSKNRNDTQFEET
Description: as §1

[7] = biological target: T1, human B7-H1 expressed on cells; assay: FACS competition: inhibition of biotinylated PD-1/Fc (10 ug/ml) binding to human B7-H1 on ES-2 cells
Description: Briefly, 50000 cells/well were plated in 50 μl of PBS into wells of a 384-well tissue culture plate (Corning Costar, catalog #3712). Next, 50 μl/well of a diluted monoclonal antibody was added at final concentration of […], 0.00016 nM and plates were incubated at 4 C for 1 hour. […] Cells were washed once and 100 μl/well of Cy5-conjugated streptavidin was added and plates were incubated at 4 C for 15 min before being washed again with PBS containing 2% FCS and being read on a FACSCalibur instrument.

[8] = biological target: T4, mouse B7-H1 on J558 cells; assay: FACS, 5 µg/ml antibody, J558 cells expressing mouse B7-H1
Description: as §1

[9] = biological target: T1, human B7-H1 expressed on cells; assay: FACS, 5 µg/ml antibody, 293T cells transfected with human B7-H1
Description: as §1

[10] = biological target: T1, human B7-H1 expressed on cells; assay: FMAT, hybridoma supernatant, 293T cells expressing human B7-H1
Description: (§2) Immediately after plating, 10 μl/well of hybridoma supernatants were added and plates incubated for 1.5 hr at room temperature.

[11] = biological target: T3, cynomolgus monkey B7-H1 expressed on …; assay: FMAT, hybridoma supernatant, 293T cells expressing cynomolgus monkey B7-H1
Description: as §2

T1 sequence (Q9NZQ7 19-290): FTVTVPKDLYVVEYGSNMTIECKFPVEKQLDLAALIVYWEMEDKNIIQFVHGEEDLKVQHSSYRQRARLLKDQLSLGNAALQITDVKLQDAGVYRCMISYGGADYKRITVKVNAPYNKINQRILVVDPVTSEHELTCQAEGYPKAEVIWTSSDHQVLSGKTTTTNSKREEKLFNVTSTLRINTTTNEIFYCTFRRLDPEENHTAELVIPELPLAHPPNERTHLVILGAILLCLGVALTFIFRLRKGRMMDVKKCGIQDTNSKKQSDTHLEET

B1: 2.9D10 (antibody, V domains shown)
VH: EVQLVESGGGLVQPGGSLRLSCAASGFTFSSYWMSWVRQAPGKGLEWVANIKQDGGEQYYVDSVKGRFTISRDNAKNSLYLQMNSLRAEDTAVYYCARDWNYGYYDMDVWGQGTTVTVSS
VL: EIVLTQSPGTLSLSPGERATLSCRASQSVSSNYLAWFQQKPGQAPRLLIFGTSSRATGIPDRFSGSGSGTDFTLTISRLEPEDFAVYYCQQYGSSIFTFGPGTKVDIK
notes: Tested as hybridoma supernatant or purified antibody; also called mAb 2.9D10
With B1 the “PD1-Fc binding to CHO-huB7-H1 cells (% of max)” value (“PD1-Fc binding … (% of max)” for short) [1] was -5 % of max, the binding result [2] was “no binding (tested: 5 µg/ml)” and the geo mean [3] was 107. For the same binder, the geo mean [4] was 8.7, the geo mean [5] was 49 and the binding result [6] was “no binding (tested: 5 µg/ml)”. The IC50 [7] was 0.109 nM, the geo mean [8] was 3.2 and the geo mean [9] was 463. The Count [10] was 22, the FL1 [10] was 7180 and the “FL1 × count” value [10] was 158000. For the same binder, the Count [11] was 54, the FL1 [11] was 5530 and the “FL1 × count” value [11] was 298000.

B2: 2.14H9 (antibody, IgG2, V domains shown)
VH: EVQLVESGGGLVQPGGSLRLSCAASGFTFSRYWMSWVRQAPGKGLEWVANIKQDGSEKYYVDSVKGRFTISRDNAKNSLYLQMNSLRAEDTAVYYCAREGGWFGELAFDYWGQGTLVTVSS
VL: EIVLTQSPGTLSLSPGERATLSCRASQRVSSSYLAWYQQKPGQAPRLLIYDASSRATGIPDRFSGSGSGTDFTLTISRLEPEDFAVYYCQQYGSLPWTFGQGTEVEIK
notes: also called mAb 2.14H9
With B2 the binding result [2] was “no binding (tested: 5 µg/ml)”, the geo mean [3] was 106 and the geo mean [4] was 11.4. For the same binder, the binding result [6] was “no binding (tested: 5 µg/ml)”, the geo mean [8] was 3 and the Count [11] was 56. The FL1 [11] was 6780 and the “FL1 × count” value [11] was 380000.

B3: 3.15G8 (antibody, IgG4, V domains shown)
VH: EVQLVESGGGLVQPGGSLRLSCAASGFTFSSYWMSWVRQAPGKGLEWVANIKQDGGEKYYVDSVKGRFTISRDNAKNSLFLQMNSLRAEDTAVYYCARVQLYSDYFDYWGQGTLVTVSS
VL: DIQMTQSPSSVSASVGDRVTITCRASQGISSWLAWYQQKSGKAPKLLIYAASGLQSGVPSRFSGSGSGTDFTLTISSLQPEDLATYYCQQSHSLPPTFGQGTKVEIK
notes: also called mAb 3.15G8
For B3, the “PD1-Fc binding … (% of max)” value [1] was 4 % of max, the binding result [2] was “no binding (tested: 5 µg/ml)” and the geo mean [3] was 92.8. For the same binder, the geo mean [4] was 10.1, the geo mean [5] was 48 and the binding result [6] was “no binding (tested: 5 µg/ml)”. For the same binder, the IC50 [7] was 0.148 nM, the geo mean [8] was 3.2 and the geo mean [9] was 1180. For the same binder, the Count [10] was 22, the FL1 [10] was 8810 and the “FL1 × count” value [10] was 194000. For the same binder, the Count [11] was 64, the FL1 [11] was 8650 and the “FL1 × count” value [11] was 553000.

B4: 2.20A8 (antibody, IgG2, V domains shown)
VH: EVQLLESGGGLVQPGGSLRLSCAASGFTFSNYAMSWVRQAPGKGLEWVSAIRGSGGSTYYADSVKGRFTISRDNSKNTLYLQMNSLRAEDTAVYYCAKDLHYDSSGYLDYWGQGTLVTVSS
VL: B3 VL with S30R, S40P, A51I, G53R, L83F, S91A, H92N, L94F, P96L, Q100G
notes: also called mAb 2.20A8
With B4 the “PD1-Fc binding … (% of max)” value [1] was 0 % of max, the binding result [2] was “no binding (tested: 5 µg/ml)” and the geo mean [3] was 80.7. The geo mean [4] was 9.5, the geo mean [5] was 41 and the binding result [6] was “no binding (tested: 5 µg/ml)”. For the same binder, the IC50 [7] was 0.198 nM, the geo mean [8] was 3.3 and the geo mean [9] was 463. For the same binder, the Count [10] was 34, the FL1 [10] was 10300 and the “FL1 × count” value [10] was 350000. The Count [11] was 65, the FL1 [11] was 7930 and the “FL1 × count” value [11] was 515000.

B5: 2.7A4 (antibody, IgG2, V domains shown)
VH: EVQLVESGGGLVKPGGSLRLSCAASGFTFSTYSMNWVRQAPGKGLEWVSSISSSGDYIYYADSVKGRFTISRDNAKNSLFLQMNSLKAEDTAVYYCARDLVTSMVAFDYWGQGTLVTVSS
VL: SYELTQPPSVSVSPGQAARITCSGDALPQKYVFWYQQKSGQAPVLVIYEDSKRPSGIPERFSGSSSGTMATLTISGAQVEDEADYYCYSTDRSGNHRVFGGGTRLTVL
notes: also called mAb 2.7A4
With B5 the “PD1-Fc binding … (% of max)” value [1] was 0 % of max, the binding result [2] was “no binding (tested: 5 µg/ml)” and the geo mean [3] was 104. The geo mean [4] was 10.5, the geo mean [5] was 49 and the binding result [6] was “no binding (tested: 5 µg/ml)”. It also gave an IC50 [7] of 0.077 nM, a geo mean [8] of 3.2 and a geo mean [9] of 754. The Count [10] was 37, the FL1 [10] was 6980 and the “FL1 × count” value [10] was 258000. The Count [11] was 59, the FL1 [11] was 8700 and the “FL1 × count” value [11] was 513000.

B6: 3.18G1 (antibody, V domains shown)
VH: EVQLLESGGDLVQPGGSLRLSCAASGFTFNSYAMSWVRQAPGKGLEWVSTISGSGGFTFSADSVKGRFTISRDNSKNTLFLQMNSLRVEDSAVYSCAKVLVGFNNGCWDYWGQGTLVTVSS
VL: SYVLTQPPSVSVAPGQTARITCGGNNIGSKSVHWYQQKPGQAPVLVVYDDSDRPSGIPERFSGSNSGNTATLTISRVEAGDEADYYCQVWDSSNDHVVFGGGTKLTVL
notes: also called mAb 3.18G1
With B6 the “PD1-Fc binding … (% of max)” value [1] was 5 % of max, the binding result [2] was “no binding (tested: 5 µg/ml)” and the geo mean [3] was 94.6. For the same binder, the geo mean [4] was 9.7, the geo mean [5] was 45 and the binding result [6] was “no binding (tested: 5 µg/ml)”. For the same binder, the IC50 [7] was 0.14 nM, the geo mean [8] was 3.2 and the geo mean [9] was 1540. For the same binder, the Count [10] was 21, the FL1 [10] was 10900 and the “FL1 × count” value [10] was 228000. The Count [11] was 66, the FL1 [11] was 10300 and the “FL1 × count” value [11] was 682000.
